# Article PMC9813914, “Structural Basis for a Cork-Up Mechanism of the Intra-Molecular Mesaconyl-CoA Transferase” (Biochemistry, 2022)
# B1: Mct (mesaconyl-CoA transferase; mesaconyl-C1:C4-CoA CoA transferase) (Chloroflexus aurantiacus J-10-fl) (protein)
# chain: MKGILHGLRVVEGSAFVAAPLGGMTLAQLGADVIRFDPIGGGLDYKRWPVTLDGKHSLFWAGLNKGKRSIAIDIRHPRGQELLTQLICAPGEHAGLFITNFPARGWLSYDELKRHRADLIMVNLVGRRDGGSEVDYTVNPQLGLPFMTGPVTTPDVVNHVLPAWDIVTGQMIALGLLAAERHRRLTGEGQLVKIALKDVGLAMIGHLGMIAEVMINDTDRPRQGNYLYGAFGRDFETLDGKRVMVVGLTDLQWKALGKATGLTDAFNALGARLGLNMDEEGDRFRARHEIAALLEPWFHARTLAEVRRIFEQHRVTWAPYRTVREAIAQDPDCSTDNPMFAMVEQPGIGSYLMPGSPLDFTAVPRLPVQPAPRLGEHTDEILLEVLGLSEAEVGRLHDEGIVAGPDRAA
# notes: intertwined homodimer
# Legend:
# [1] = substrate: C/C(=C\C(=O)O)C(=O)SCCNC(=O)CCNC(=O)[C@H](O)C(C)(C)COP(=O)(O)OP(=O)(O)OC[C@H]1O[C@@H](n2cnc3c(N)ncnc32)[C@H](O)[C@@H]1OP(=O)(O)O; experiment: purified protein; type: biochemical, Chloroflexus aurantiacus; conditions: 200 mM HEPES/KOH pH 8.0, 55 °C, 22 nM Mct, intra-molecular CoA transfer C1 to C4
# [2] = substrate: C/C(=C\C(=O)SCCNC(=O)CCNC(=O)[C@H](O)C(C)(C)COP(=O)(O)OP(=O)(O)OC[C@H]1O[C@@H](n2cnc3c(N)ncnc32)[C@H](O)[C@@H]1OP(=O)(O)O)C(=O)O; experiment: purified protein; type: biochemical, Chloroflexus aurantiacus; conditions: 200 mM HEPES/KOH pH 8.0, 55 °C, 22 nM Mct, intra-molecular CoA transfer C4 to C1
protein,measurement,setting,value
B1,Km,[1],160 µM
same,kcat,[1],370 s⁻¹
same,Km,[2],200 µM
same,kcat,[2],320 s⁻¹
